Target: rhAChE (recombinant human acetylcholinesterase) (Homo sapiens, UniProt P22303 32-614)
Experiment: indirect ELISA

rhAChE (recombinant human acetylcholinesterase), sequence (P22303 32-614): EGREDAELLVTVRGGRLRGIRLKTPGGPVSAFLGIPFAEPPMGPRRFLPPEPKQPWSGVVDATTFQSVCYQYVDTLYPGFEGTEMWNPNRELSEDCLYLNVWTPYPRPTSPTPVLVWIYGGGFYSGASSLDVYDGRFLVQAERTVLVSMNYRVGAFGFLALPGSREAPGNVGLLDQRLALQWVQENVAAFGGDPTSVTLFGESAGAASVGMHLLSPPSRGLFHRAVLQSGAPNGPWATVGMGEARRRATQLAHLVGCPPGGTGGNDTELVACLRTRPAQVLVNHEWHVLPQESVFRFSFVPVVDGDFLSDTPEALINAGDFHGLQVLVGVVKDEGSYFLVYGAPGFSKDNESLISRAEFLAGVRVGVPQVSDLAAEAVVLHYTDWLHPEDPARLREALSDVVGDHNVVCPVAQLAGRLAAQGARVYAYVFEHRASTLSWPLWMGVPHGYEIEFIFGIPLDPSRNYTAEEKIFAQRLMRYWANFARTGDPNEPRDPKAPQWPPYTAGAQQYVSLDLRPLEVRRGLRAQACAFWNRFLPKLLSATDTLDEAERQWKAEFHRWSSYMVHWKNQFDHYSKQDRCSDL

B1: Ob2 (ssDNA)
DNA: TAATACGACTCACTATAGCAATGGTACGGTACTTCCCTTCGAAAACACCCTGCCCCTCACACAAAAGTGCACGCTACTTTGCTAA
Kd: 17.1 ± 9.86 nM

From PMC8938253
